In patent publication US20180127480A1:

Experiments:
[1] = target: biotinylated human SIRPα allele 1 domain 1 (a1d1) (human) (UniProt P78324); assay: SPR, Biacore T100, biotinylated SIRPα on SA chip, 25 C, 1:1 Langmuir model
[2] = target: biotinylated human SIRPα allele 2 domain 1 (a2d1) (human) (UniProt P78324); assay: as above
Sequence of biotinylated human SIRPα allele 2 domain 1 (a2d1) (human) (P78324 other isoform, or with tags, fused parts or gaps): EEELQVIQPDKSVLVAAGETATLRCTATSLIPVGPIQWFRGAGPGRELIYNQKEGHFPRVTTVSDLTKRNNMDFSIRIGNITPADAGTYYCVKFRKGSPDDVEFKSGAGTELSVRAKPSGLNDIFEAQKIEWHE

Sequence of biotinylated human SIRPα allele 1 domain 1 (a1d1) (human) (P78324 other isoform, or with tags, fused parts or gaps): as above

Work on “WT CD47 (human CD47 IgSF domain, C15G, C-terminal 8x histidine tag) (from UniProt Q08722 19-135) (ligand)” yielded a Kd [1] of 285 nM and a Kd [2] of 476 nM.
